Data on 1 substance can be found in patent US20140302123A1.

For this experiment, the target named is PTPN4 as expressed in U373MG cells (human) (UniProt P29074). The experiment is described as follows: cell-based or functional assay.
Sequence of PTPN4 as expressed in U373MG cells (human) (P29074 whole entry): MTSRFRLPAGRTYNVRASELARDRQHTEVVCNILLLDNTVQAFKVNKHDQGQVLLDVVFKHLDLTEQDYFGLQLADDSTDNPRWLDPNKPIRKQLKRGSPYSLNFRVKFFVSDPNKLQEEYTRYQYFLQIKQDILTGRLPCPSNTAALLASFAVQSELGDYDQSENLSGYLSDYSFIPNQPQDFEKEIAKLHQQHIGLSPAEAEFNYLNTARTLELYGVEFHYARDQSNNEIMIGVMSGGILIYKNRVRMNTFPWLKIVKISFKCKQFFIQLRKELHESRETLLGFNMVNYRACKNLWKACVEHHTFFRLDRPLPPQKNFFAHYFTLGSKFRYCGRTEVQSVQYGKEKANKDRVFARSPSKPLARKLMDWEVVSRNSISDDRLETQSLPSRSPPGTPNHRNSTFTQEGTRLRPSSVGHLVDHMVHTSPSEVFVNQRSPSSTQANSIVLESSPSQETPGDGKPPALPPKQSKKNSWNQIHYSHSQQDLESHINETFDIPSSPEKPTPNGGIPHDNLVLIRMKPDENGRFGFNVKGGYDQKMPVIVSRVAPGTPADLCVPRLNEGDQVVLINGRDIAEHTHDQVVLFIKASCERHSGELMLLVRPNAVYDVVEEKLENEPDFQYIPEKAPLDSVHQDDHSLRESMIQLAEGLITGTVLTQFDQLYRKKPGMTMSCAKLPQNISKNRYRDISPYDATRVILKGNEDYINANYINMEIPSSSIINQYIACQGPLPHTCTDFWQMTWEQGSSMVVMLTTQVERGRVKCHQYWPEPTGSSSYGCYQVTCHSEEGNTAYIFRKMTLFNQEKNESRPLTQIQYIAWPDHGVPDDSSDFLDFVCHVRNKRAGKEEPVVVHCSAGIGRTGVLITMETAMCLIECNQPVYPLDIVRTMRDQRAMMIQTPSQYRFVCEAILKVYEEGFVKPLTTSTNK

Regarding “Tat-conjugated, FITC-labelled GluN2A-16 (peptide)”, the cell death (% of dead cells among peptide loaded cells), U373MG, 3 h, 25 microM, propidium iodide was 29%.
